Fewer inactive variants are shown than the library holds.
Legend:
biotinyl-Val-oxazolone = experiment: self-aminoacylation, catalytic enhancement (BVO) (fold over background); higher = more active; k-Seq, kA / k0A0; sequences stand for … in GGGAAUGGAUCCACAUCUACGAAUUC…UUCACUGCAGACUUGACGAAGCUG
Method in brief: (§1)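 Each biotinyl-aminoacyl-oxazolone, at 2–1250 μM, was incubated with mutagenized RNA pools (0.43 μM) carrying a 21-nt variable region. The 50 μL reactions contained HEPES/NaCl/KCl/MgCl2/CaCl2 buffer with 5% acetonitrile at pH 6.9–7.0 and ran for 90 minutes at room temperature. After streptavidin capture, RNA was measured by qPCR in triplicate and by Illumina sequencing, and catalytic enhancement was calculated as median kA over the uncatalyzed rate from a pseudo-first-order fit of per-sequence fraction reacted.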

biotinyl-Phe-oxazolone = experiment: self-aminoacylation, catalytic enhancement (BFO) (fold over background); higher = more active; k-Seq, kA / k0A0; sequences stand for … in GGGAAUGGAUCCACAUCUACGAAUUC…UUCACUGCAGACUUGACGAAGCUG
Method in brief: as §1

biotinyl-Ile-oxazolone = experiment: self-aminoacylation, catalytic enhancement (BIO) (fold over background); higher = more active; k-Seq, kA / k0A0; sequences stand for … in GGGAAUGGAUCCACAUCUACGAAUUC…UUCACUGCAGACUUGACGAAGCUG
Method in brief: as §1

biotinyl-Met-oxazolone = experiment: self-aminoacylation, catalytic enhancement (BMO) (fold over background); higher = more active; k-Seq, kA / k0A0; sequences stand for … in GGGAAUGGAUCCACAUCUACGAAUUC…UUCACUGCAGACUUGACGAAGCUG
Method in brief: as §1

biotinyl-Leu-oxazolone = experiment: self-aminoacylation, catalytic enhancement (BLO) (fold over background); higher = more active; k-Seq, kA / k0A0; sequences stand for … in GGGAAUGGAUCCACAUCUACGAAUUC…UUCACUGCAGACUUGACGAAGCUG
Method in brief: as §1

biotinyl-Trp-oxazolone = experiment: self-aminoacylation, catalytic enhancement (BWO) (fold over background); higher = more active; k-Seq, kA / k0A0; sequences stand for … in GGGAAUGGAUCCACAUCUACGAAUUC…UUCACUGCAGACUUGACGAAGCUG
Method in brief: as §1

Row | Sequence | self-aminoacylation (biotinyl-Val-oxazolone) | self-aminoacylation (biotinyl-Phe-oxazolone) | self-aminoacylation (biotinyl-Ile-oxazolone) | self-aminoacylation (biotinyl-Met-oxazolone) | self-aminoacylation (biotinyl-Leu-oxazolone) | self-aminoacylation (biotinyl-Trp-oxazolone)
1 | AAGUUUGGUGAUAGUCGCAAG [Fam3.1 aminoacylation ribozyme variant] | 1.23 | 2.03 | 1.36 | 1.51 | 1.43 | 1.42
2 | AAGUUUGGUUAUAGUCGCAAG [Fam3.1 aminoacylation ribozyme variant] | 1.39 | 2.69 | 1.7 | 1.23 | 1.38 | 1.46
3 | AAGUUUGUUAAUAGUCACAAG [Fam3.1 aminoacylation ribozyme variant] | 0.941 | 1.16 | 1.06 | 0.982 | 0.749 | 0.701
4 | AAGUUUGUUAAUAGUCCCAAG [Fam3.1 aminoacylation ribozyme variant] | 0.884 | 1.12 | 0.846 | 0.751 | 0.775 | 0.847
5 | AAGUUUGUUAAUAGUCGAAAG [Fam3.1 aminoacylation ribozyme variant] | 0.998 | 1.08 | 0.947 | 0.764 | 0.935 | 0.713
6 | AAGUUUGUUAAUAGUCGCACG [Fam3.1 aminoacylation ribozyme variant] | 0.925 | 1.4 | 1.04 | 1.12 | 1.22 | 1.04
7 | AAGUUUGUUAAUGGUCGCAAG [Fam3.1 aminoacylation ribozyme variant] | 0.685 | 1.11 | 0.867 | 0.775 | 0.694 | 0.557
8 | AAGUUUUCUAAUAGUCGCACG [Fam3.1 aminoacylation ribozyme variant] | 1.25 | 1.8 | 1.3 | 1.38 | 1.24 | 1.34
9 | AAGUUUUCUAAUGGUCGCAAG [Fam3.1 aminoacylation ribozyme variant] | 1.38 | 2.21 | 1.67 | 1.21 | 1.6 | 1.68
10 | AAGUUUUUUAAUAGUCGCAAG [Fam3.1 aminoacylation ribozyme variant] | 1.62 | 3.28 | 2.01 | 1.58 | 1.71 | 2.02
11 | AAUACCCAGGUCAUCGAGUGA [Fam2.1 aminoacylation ribozyme variant] | 2.56 | 17.6 | 2.87 | 4.41 | 4.58 | 5.81
12 | AAUACCCUGGUCACCGAGUGA [Fam2.1 aminoacylation ribozyme variant] | 3.33 | 39.1 | 4.13 | 6.98 | 6.58 | 6.81
13 | AAUACCCUGGUCAGCGAGUGA [Fam2.1 aminoacylation ribozyme variant] | 2.61 | 3.78 | 2.36 | 4.02 | 4.46 | 5.5
14 | AAUACCCUGGUCAUCAAGUGA [Fam2.1 aminoacylation ribozyme variant] | 1.16 | 2.42 | 1.15 | 1.48 | 1.56 | 1.75
15 | AAUACCCUGGUCAUCGAGAGA [Fam2.1 aminoacylation ribozyme variant] | 0.65 | 0.87 | 0.653 | 0.552 | 0.673 | 0.752
16 | AAUACCCUGGUCAUCGAGUAA [Fam2.1 aminoacylation ribozyme variant] | 1.54 | 3.36 | 1.41 | 1.51 | 1.93 | 1.32
17 | AAUACCCUGGUCAUCGAGUGA [Fam2.1 aminoacylation ribozyme variant] | 5.52 | 20.8 | 5.01 | 9.27 | 8.74 | 11.2
18 | AAUACCCUGGUCAUCGAGUGU [Fam2.1 aminoacylation ribozyme variant] | 4.56 | 20.5 | 3.84 | 8.79 | 7.95 | 8.44
19 | AAUACCCUGGUCAUCGCGUGA [Fam2.1 aminoacylation ribozyme variant] | 8.98 | 118 | 7.23 | 16.9 | 15.7 | 16.1
20 | AAUACCCUGGUCAUCGUGUGA [Fam2.1 aminoacylation ribozyme variant] | 1.35 | 11.4 | 1.51 | 2.55 | 2.39 | 2.98
21 | AAUACCCUGGUCAUCUAGUGA [Fam2.1 aminoacylation ribozyme variant] | 3.66 | 28.3 | 3.19 | 6.98 | 7.36 | 8.94
22 | AAUACCCUGGUCAUGGAGUGA [Fam2.1 aminoacylation ribozyme variant] | 1.86 | 1.9 | 2.21 | 2.43 | 3.47 | 3.45
23 | AAUACCCUGGUCUUCGAGUGA [Fam2.1 aminoacylation ribozyme variant] | 2.32 | 12.6 | 2.2 | 3.34 | 3.26 | 4.72
24 | AAUACCUUGGUCAUCGAGUGA [Fam2.1 aminoacylation ribozyme variant] | 3.99 | 7.36 | 4.23 | 6.2 | 6.66 | 7.87
25 | AAUACGCUGGUCAUCGAGUGA [Fam2.1 aminoacylation ribozyme variant] | 3.88 | 15.1 | 3.67 | 4.31 | 5 | 5.67
26 | AAUACUCUGGUCAUCGAGUGA [Fam2.1 aminoacylation ribozyme variant] | 2.77 | 8.91 | 2.59 | 3.85 | 3.72 | 5.7

Reference: the supplement of paper PMC9233669
